Results on 12 molecules are retold here after patent publication US7655227 (Chugai, dated 2010).

Where a chain is given by its changes, count along the chain named.

To fix the notation:
B1: chimeric #23-57-137-1 antibody with L-chain κ chain C-region (antibody, IgG1, V domains shown)
VH: EVQLVESGGDLVKPGGSLKLSCAASGFTFSSYGMSWIRQTPDKRLEWVATISSGGSYTYYPDSVKGRFTISRDNAKNTLYLQMSSLKSEDTAMFYCARQTTMTYFAYWGQGTLVTVSA
VL: QLVLTQSSSASFSLGASAKLTCTLSSQHSTYTIEWYQQQPLKPPKYVMDLKQDGSHSTGDGIPDRFSGSSSGADRYLSISNIQPEDEAMYICGVGDTIKEQFVYVFGGGTKVTVLG
notes: Mouse V-regions joined to human H-chain C-region Cγ1 (IgG1) and human κ chain C-region cloned from HEF-PM1k-gk; Expressed in COS-7 cells; also called chimeric antibody (MBC1HcDNA/pCOS1 and MBC1L(κ)/neo)
B2: chimeric #23-57-137-1 antibody with L-chain λ chain C-region (antibody, IgG1, V domains shown)
VH: B1 VH
VL: B1 VL
notes: Mouse V-regions joined to human H-chain C-region Cγ1 (IgG1) and human λ chain C-region (isotype Mcg+Ke+Oz-, EMBL X57819); Expressed in COS-7 cells; also called chimeric antibody (MBC1HcDNA/pCOS1 and MBC1L(λ)/neo)
B3: mouse monoclonal antibody #23-57-137-1 against human PTHrP (1-34) (antibody, V domains shown)
VH: B1 VH
VL: B1 VL
notes: Mouse antibody in hybridoma culture supernatant (FERM BP-5631); Lambda L-chain; also called MBC1
B4: antibody having both a humanized H-chain version “a” and a chimeric L-chain (antibody, V domains shown)
VH: QVQLVESGGGVVQPGRSLRLSCAASGFTFSSYGMSWVRQAPGKGLEWVATISSGGSYTYYPDSVKGRFTISRDNSKNTLYLQMNSLRAEDTAVYYCARQTTMTYFAYWGQGTLVTVSS
VL: B1 VL
notes: Human Cγ1 H-chain C-region
B5: humanized #23-57-137-1 antibody having H-chain version “a” and L-chain version “j” (antibody, IgG1, V domains shown)
VH: B4 VH
VL: QLVLTQSPSASASLGASVKLTCTLSSQHSTYTIEWYQQQPEKGPKYLMDLKQDGSHSTGDGIPDRFSGSSSGAERYLTISSLQSEDEADYYCGVGDTIKEQFVYVFGGGTKLTVLG
notes: Human Cγ1 (IgG1) and human λ C-regions; expressed in COS-7 cells; also called hMBC1Ljλ
B6: humanized #23-57-137-1 antibody having H-chain version “a” and L-chain version “o” (antibody, IgG1, V domains shown)
VH: B4 VH
VL: B5 VL with K45R, L47V
notes: Human Cγ1 (IgG1) and human λ C-regions; expressed in COS-7 cells; also called hMBC1Loλ
B7: hybrid antibody with humanized H-chain version a and L-chain m/hMBC1Laλ (mouse FR1,2/human FR3,4) (antibody, V domains shown)
VH: B4 VH
VL: QLVLTQSSSASFSLGASAKLTCTLSSQHSTYTIEWYQQQPLKPPKYVMDLKQDGSHSTGDGIPDRFSGSSSGAERYLTISSLQSEDEADYYCGVGDTIKEQFVYVFGGGTKLTVL
notes: Human Cγ1 and human λ C-regions; expressed in COS-7 cells
B8: humanized #23-57-137-1 antibody having H-chain version “a” and L-chain version “t” (antibody, IgG1, V domains shown)
VH: B4 VH
VL: B5 VL with K45R, L47V, Y91I
notes: Human Cγ1 (IgG1) and human λ C-regions; expressed in COS-7 cells; also called hMBC1Ltλ
B9: humanized #23-57-137-1 antibody having H-chain version “a” and L-chain version “l” (antibody, IgG1, V domains shown)
VH: B4 VH
VL: B5 VL with L47V
notes: Human Cγ1 (IgG1) and human λ C-regions; expressed in COS-7 cells; also called hMBC1Llλ
B10: hybrid antibody with humanized H-chain version a and L-chain hmmMBC1L(λ) (human FR1/mouse FR2,3,4) (antibody, V domains shown)
VH: B4 VH
VL: QLVLTQSPSASASLGASVKLTCTLSSQHSTYTIEWYQQQPLKPPKYVMDLKQDGSHSTGDGIPDRFSGSSSGADRYLSISNIQPEDEAMYICGVGDTIKEQFVYVFGGGTKVTVL
notes: as for B7
B11: humanized #23-57-137-1 antibody having H-chain version “a” and L-chain version “m” (antibody, IgG1, V domains shown)
VH: B4 VH
VL: B5 VL with K45R
notes: Human Cγ1 (IgG1) and human λ C-regions; expressed in COS-7 cells; also called hMBC1Lmλ
B12: humanized #23-57-137-1 antibody having H-chain version “a” and L-chain version “q” (antibody, IgG1, V domains shown)
VH: B4 VH
VL: B5 VL with Y91I
notes: Human Cγ1 (IgG1) and human λ C-regions; expressed in COS-7 cells and in CHO cells; also called hMBC1Lqλ

One test addresses T1, human PTHrP (1-34) (human).
T1 construct: Coated on the ELISA plate at 1 ug/ml; Added at 1 ng/ml final in the cAMP neutralisation assay, where the species is not restated; also called parathyroid hormone-related peptide (1-34)
As to the kind of experiment: ELISA, plate coated with human PTHrP (1-34); COS-7 supernatant or purified antibody. As to the method: An ELISA plate for the determination of antigen-binding ability was prepared as follows. Each well of a 96-well ELISA plate was coated with 100 µl of a coating buffer supplemented with 1 µg/ml of human PTHrP (1-34) (Peptide Research Institute), and then blocked with 200 µl of a dilution buffer. Each well was added with each of the serial dilutions of the COS-7 cell culture supernatant in which each of the chimeric antibodies had been expressed, or added with each of the serial dilutions of each of the chimeric antibodies per se in a purified form. After the plate was incubated at room temperature and washed with PBS-Tween 20, each well of the plate was added with 100 µl of a solution of alkaline phosphatase-conjugated goat anti-human IgG antibodies (TAGO). After the plate was incubated at room temperature and washed with PBS-Tween 20, each well of the plate was added with 1 mg/ml of a substrate solution ("Sigma 104"; p-nitrophenylphosphoric acid, SIGMA). The solution was measured on its absorbance at 405 nm using Microplate Reader (Bio Rad).
On the technique in general: An ELISA detects its analyte on a solid surface through an enzyme-linked reagent.
As to B1, the binding result is reported as “binds”. For B2, the binding result is “binds”.

A further test deals with T1, human PTHrP (1-34). As to the kind of experiment: solid phase RIA of hybridoma culture supernatant. The protocol:
The screening of hybridomas was performed by determining the presence of PTHrP-recognition antibodies in the culture supernatant of the wells in which cell growth had been observed in HAT medium, by solid phase RIA method. The hybridomas were collected from the wells in which the binding ability to the PTHrP-recognition antibodies had been confirmed. The hybridomas thus obtained was suspended into RPMI-1640 medium containing 15% FCS supplemented with OPI-supplement (Sigma), followed by unification of the hybridomas by limiting dilution method.
On to B3, for which the binding result was “binds”.

A further test deals with T1, human PTHrP (1-34). As to the kind of experiment: ELISA, plate coated with human PTHrP (1-34). As to the method: An ELISA plate for determining antigen-binding ability was prepared as follows. Each well of a 96-well ELISA plate was coated with 100 μl of a coating buffer containing 1 μg/ml of human PTHrP (1-34) and then blocked with 200 μl of a dilution buffer. Subsequently, each well was added with each of the serial dilutions of the COS-7 cell culture supernatant in which each of the hybrid antibodies and humanized antibodies was expressed, or added with each of the serial dilutions of each of the hybrid antibodies and humanized antibodies in a purified form. The plate was incubated at room temperature and washed with PBS-Tween 20. Subsequently, each well was added with 100 μl of alkaline phosphatase-conjugated goat anti-human IgG antibody (TAGO). The plate was incubated at room temperature and washed with PBS-Tween 20. Subsequently, each well was added with 1 mg/ml of a substrate solution ("Sigma 104"; p-nitrophenylphosphoric acid, SIGMA). The solution was measured on its absorbance at 405 nm using Microplate Reader (Bio Rad).
Regarding B4, the binding result is “binds”. Same read-out and setting: as for B5, the entry is “binds”; as for B6, “binds”; as for B7, “binds”. On the same count and under the same terms, under B8 stands “binds”; under B9, “binds”; under B10, “binds”. On the same count and under the same terms, as for B11, the entry is “binds”; as for B12, “binds”.
